Sequences and labels used below:
B1: G52cA (heavy chain) (antibody, V domains shown)
VH: EVQLVESGGGLVKPGGSLRLSCSASGFDFDNAWMTWVRQPPGKGLEWVGRITGPAEGWSVDYAAPVEGRFTISRLNSINFLYLEMNNLRMEDSGLYFCARTGKYYDFWSGYPPGEEYFQDWGRGTLVTVSS
VL: SYELTQETGVSVALGRTVTITCRGDSLRSHYASWYQKKPGQAPILLFYGKNNRPSGVPDRFSGSASGNRASLTISGAQAEDDAEYYCSSRDKSGSRLSVFGGGTKLTVL
B2: T52A (heavy chain) (antibody, V domains shown)
VH: B1 VH with T52A, A55G
VL: B1 VL
B3: D28A (heavy chain) (antibody, V domains shown)
VH: B1 VH with D28A, A55G
VL: B1 VL
B4: 10E8 IgG alanine variant E53A (heavy chain, Kabat) (antibody, V domains shown)
VH: B1 VH with A55G, E56A
VL: B1 VL
B5: S100cA (heavy chain) (antibody, V domains shown)
VH: B1 VH with A55G, S109A
VL: B1 VL
B6: E100iA (heavy chain) (antibody, V domains shown)
VH: B1 VH with A55G, E115A
VL: B1 VL
B7: E100jA (heavy chain) (antibody, V domains shown)
VH: B1 VH with A55G, E116A
VL: B1 VL
B8: D58A (heavy chain) (antibody, V domains shown)
VH: B1 VH with A55G, D61A
VL: B1 VL
B9: D30A (heavy chain) (antibody, V domains shown)
VH: B1 VH with D30A, A55G
VL: B1 VL
B10: N31A (heavy chain) (antibody, V domains shown)
VH: B1 VH with N31A, A55G
VL: B1 VL
B11: K97A (heavy chain) (antibody, V domains shown)
VH: B1 VH with A55G, K103A
VL: B1 VL
B12: Y98A (heavy chain) (antibody, V domains shown)
VH: B1 VH with A55G, Y104A
VL: B1 VL
B13: Y100eA (heavy chain) (antibody, V domains shown)
VH: B1 VH with A55G, Y111A
VL: B1 VL
B14: P100fA (heavy chain) (antibody, V domains shown)
VH: B1 VH with A55G, P112A
VL: B1 VL
B15: W100bA (heavy chain) (antibody, V domains shown)
VH: B1 VH with A55G, W108A
VL: B1 VL
B16: R95bA (light chain) (antibody, V domains shown)
VH: B1 VH with A55G
VL: B1 VL with R96A
B17: P100gA (heavy chain) (antibody, V domains shown)
VH: B1 VH with A55G, P113A
VL: B1 VL
B18: G100dA (heavy chain) (antibody, V domains shown)
VH: B1 VH with A55G, G110A
VL: B1 VL
B19: F100aA (heavy chain) (antibody, V domains shown)
VH: B1 VH with A55G, F107A
VL: B1 VL
B20: S56A (heavy chain) (antibody, V domains shown)
VH: B1 VH with A55G, S59A
VL: B1 VL
B21: 10E8 monoclonal antibody (full-length IgG) (antibody, V domains shown)
VH: B1 VH with A55G
VL: B1 VL

Where a chain is given by its changes, count along the chain named. Names may count otherwise.

The source of these data is patent US20140348785A1 (published 2014).

The first experiment concerns the target soluble gp41 MPER peptide RRR-(656-683)-RRR. As to the kind of experiment: kinetic binding (ka/kd).
Broadly, the Kd is the equilibrium constant for the complex coming apart. Turning to B1, the Kd stood at 11.1 nM. Still for that read-out and setting: as for B2, the figure is 10.9 nM.

The molecule B3 returned a Kd of 14.3 nM. In the case of B4, the Kd came out at 395 nM. In turn, B5 showed a Kd of 9.65 nM. Consider B6, for which the Kd was determined as 433 nM. B7 yielded a Kd of 361 nM. The same measure, in the same setting: as for B8, the figure is 30.6 nM. Still for that read-out and setting: for B9 the value was 11.8 nM; for B10, 13 nM; for B11, 24.8 nM. B12 yielded a Kd of 27 nM. The same measure, in the same setting: as for B13, the figure is 75.9 nM; as for B14, 757 nM. On the same count and under the same terms, as for B15, the figure is 93.1 nM. Molecule B16 displayed a Kd of 28.6 nM. The same measure, in the same setting: for B17 the value was 691 nM. Same read-out and setting: for B18 the value was 315 nM; for B19, 429 nM; for B20, 10.9 nM.

The next experiment shares this target. As to the kind of experiment: kinetic binding (ka/kd); mean of three runs.
B21: the Kd turned out to be 6.08 nM.
